Laboratory results as given in IntAct's records for PubMed 17237231.

B1: Macrophage scavenger receptor types I and II (Homo sapiens), P21757 (parent)
chain: MEQWDHFHNQQEDTDSCSESVKFDARSMTALLPPNPKNSPSLQEKLKSFKAALIALYLLVFAVLIPLIGIVAAQLLKWETKNCSVSSTNANDITQSLTGKGNDSEEEMRFQEVFMEHMSNMEKRIQHILDMEANLMDTEHFQNFSMTTDQRFNDILLQLSTLFSSVQGHGNAIDEISKSLISLNTTLLDLQLNIENLNGKIQENTFKQQEEISKLEERVYNVSAEIMAMKEEQVHLEQEIKGEVKVLNNITNDLRLKDWEHSQTLRNITLIQGPPGPPGEKGDRGPTGESGPRGFPGPIGPPGLKGDRGAIGFPGSRGLPGYAGRPGNSGPKGQKGEKGSGNTLTPFTKVRLVGGSGPHEGRVEILHSGQWGTICDDRWEVRVGQVVCRSLGYPGVQAVHKAAHFGQGTGPIWLNEVFCFGRESSIEECKIRQWGTRACSHSEDAGVTCTL
partner: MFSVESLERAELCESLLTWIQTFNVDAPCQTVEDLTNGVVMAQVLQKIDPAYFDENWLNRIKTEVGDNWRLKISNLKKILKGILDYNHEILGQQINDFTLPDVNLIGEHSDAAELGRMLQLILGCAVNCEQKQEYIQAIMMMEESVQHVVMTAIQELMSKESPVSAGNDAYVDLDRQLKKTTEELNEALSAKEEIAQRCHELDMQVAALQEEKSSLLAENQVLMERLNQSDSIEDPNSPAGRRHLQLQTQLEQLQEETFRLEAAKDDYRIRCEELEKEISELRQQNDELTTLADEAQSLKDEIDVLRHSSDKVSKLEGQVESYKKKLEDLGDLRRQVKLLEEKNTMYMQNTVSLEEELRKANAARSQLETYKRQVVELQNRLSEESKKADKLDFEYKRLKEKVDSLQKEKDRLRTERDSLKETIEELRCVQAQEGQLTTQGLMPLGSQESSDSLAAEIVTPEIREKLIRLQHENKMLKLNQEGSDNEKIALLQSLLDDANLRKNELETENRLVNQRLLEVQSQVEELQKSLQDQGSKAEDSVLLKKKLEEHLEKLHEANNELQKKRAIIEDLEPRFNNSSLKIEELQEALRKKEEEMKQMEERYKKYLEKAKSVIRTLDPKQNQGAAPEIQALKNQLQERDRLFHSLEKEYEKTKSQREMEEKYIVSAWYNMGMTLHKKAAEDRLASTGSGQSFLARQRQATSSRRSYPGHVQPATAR

Variants of: B1
Conditions: with hook3_human HOOK3, Q86VS8

Variant | effect of a mutation on the interaction
MEQWDHFHNQQAATASCSESVKFDARSMTALLPPNPKNSPSLQEKLKSFKAALIALYLLVFAVLIPLIGIVAAQLLKWETKNCSVSSTNANDITQSLTGKGNDSEEEMRFQEVFMEHMSNMEKRIQHILDMEANLMDTEHFQNFSMTTDQRFNDILLQLSTLFSSVQGHGNAIDEISKSLISLNTTLLDLQLNIENLNGKIQENTFKQQEEISKLEERVYNVSAEIMAMKEEQVHLEQEIKGEVKVLNNITNDLRLKDWEHSQTLRNITLIQGPPGPPGEKGDRGPTGESGPRGFPGPIGPPGLKGDRGAIGFPGSRGLPGYAGRPGNSGPKGQKGEKGSGNTLTPFTKVRLVGGSGPHEGRVEILHSGQWGTICDDRWEVRVGQVVCRSLGYPGVQAVHKAAHFGQGTGPIWLNEVFCFGRESSIEECKIRQWGTRACSHSEDAGVTCTL [E12A;D13A;D15A] | disrupting interaction
